In the assay the target is biotin-labeled soluble FcRn. Put plainly: FcRn ELISA pH 6.0. On the technique in general: ELISA stands for enzyme-linked immunosorbent assay.
anti-CD20 IgG1 257I311I434H (antibody): the FcRn6.0 (% of wild type) was 553. Same read-out and setting: under anti-CD20 IgG1 251F332E (antibody) stands 72. In turn, anti-CD20 IgG1 283R307E (antibody) had a FcRn6.0 (% of wild type) of 400.

The substance anti-CD20 IgG1 247L251F376I (antibody) registered a FcRn6.0 (% of wild type) of 61.

anti-CD20 IgG1 Y373H (antibody) returned a FcRn pH6.0 (% of wild type) of 100. On the same count and under the same terms, under anti-CD20 IgG1 I332D (antibody) stands 78; under anti-CD20 IgG1 Y373R (antibody), 107. Turning to anti-CD20 IgG1 258D272R (antibody), the FcRn6.0 (% of wild type) worked out at 383. Substance anti-CD20 IgG1 T256I (antibody) registered a FcRn pH6.0 (% of wild type) of 72. On the same count and under the same terms, the same measure for anti-CD20 IgG1 A330R (antibody): 121.

For anti-CD20 IgG1 S440M (antibody), the FcRn pH6.0 (% of wild type) was 80. In turn, anti-CD20 IgG1 E430M (antibody) displayed a FcRn pH6.0 (% of wild type) of 195.

anti-CD20 IgG1 D249Y (antibody): the FcRn pH6.0 (% of wild type) is 41. In turn, anti-CD20 IgG1 G341S (antibody) returned a FcRn pH6.0 (% of wild type) of 55. The same measure, in the same setting: under anti-CD20 IgG1 R301W (antibody) stands 119; under anti-CD20 IgG1 A327T (antibody), 54. Regarding anti-CD20 IgG1 Q311P (antibody), the FcRn pH6.0 (% of wild type) was found to be 89. Take anti-CD20 IgG1 D249N (antibody): the FcRn pH6.0 (% of wild type) came to 112. Consider anti-CD20 IgG1 256P314Y440Y (antibody), for which the FcRn6.0 (% of wild type) is 79. Substance anti-CD20 IgG1 P247T (antibody) had a FcRn pH6.0 (% of wild type) of 75. For the substance anti-CD20 IgG1 332E376I (antibody), the FcRn6.0 (% of wild type) came to 102. Turning to anti-CD20 IgG1 V279N (antibody), the FcRn pH6.0 (% of wild type) was found to be 204. anti-CD20 IgG1 E430R (antibody) showed a FcRn pH6.0 (% of wild type) of 249. As to anti-CD20 IgG1 D376P (antibody), the FcRn pH6.0 (% of wild type) was determined as 203. anti-CD20 IgG1 R255N (antibody): the FcRn pH6.0 (% of wild type) worked out at 27. In turn, anti-CD20 IgG1 S254M (antibody) yielded a FcRn pH6.0 (% of wild type) of 0.

For the substance anti-CD20 IgG1 Q438T (antibody), the FcRn pH6.0 (% of wild type) is 126. Take anti-CD20 IgG1 L235R (antibody): the FcRn pH6.0 (% of wild type) stood at 93. On the same count and under the same terms, the same measure for anti-CD20 IgG1 K439Q (antibody): 74; for anti-CD20 IgG1 N315F (antibody): 51. anti-CD20 IgG1 A431P (antibody) showed a FcRn pH6.0 (% of wild type) of 29. For anti-CD20 IgG1 E380S (antibody), the FcRn pH6.0 (% of wild type) came to 230. Substance anti-CD20 IgG1 L235Q (antibody) displayed a FcRn pH6.0 (% of wild type) of 81.

Regarding anti-CD20 IgG1 S440L (antibody), the FcRn pH6.0 (% of wild type) is 126. Take anti-CD20 IgG1 A339I (antibody): the FcRn pH6.0 (% of wild type) amounted to 80. Regarding anti-CD20 IgG1 V279W (antibody), the FcRn pH6.0 (% of wild type) was 162. Substance anti-CD20 IgG1 247L332E (antibody) returned a FcRn6.0 (% of wild type) of 78. anti-CD20 IgG1 E382Y (antibody) registered a FcRn pH6.0 (% of wild type) of 188. Substance anti-CD20 IgG1 P343I (antibody) returned a FcRn pH6.0 (% of wild type) of 114. Consider anti-CD20 IgG1 S267I (antibody), for which the FcRn pH6.0 (% of wild type) turned out to be 83.

Regarding anti-CD20 IgG1 Q311T (antibody), the FcRn pH6.0 (% of wild type) amounted to 131. For anti-CD20 IgG1 G316K (antibody), the FcRn pH6.0 (% of wild type) is 131. As to anti-CD20 IgG1 286F376V (antibody), the FcRn6.0 (% of wild type) was 349.

The record behind these values is US20070224188A1.
